In this assay the target is T1, GST-CHC 331–542 fragment (UniProt Q00610 331-542).
T1 sequence: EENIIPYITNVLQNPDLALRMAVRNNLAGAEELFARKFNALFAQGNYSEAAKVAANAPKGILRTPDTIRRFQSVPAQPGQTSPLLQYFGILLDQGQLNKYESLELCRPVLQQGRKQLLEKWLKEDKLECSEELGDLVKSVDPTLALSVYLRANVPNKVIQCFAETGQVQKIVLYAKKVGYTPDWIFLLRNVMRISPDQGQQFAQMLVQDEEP
In words: pull-down.

Non-standard residues stand in square brackets, D forms with d. No end group written: not given here. pS = N[C@@H](COP(=O)(O)O)C(=O)O; MBP = not defined here

B1: MBP-TACC3 522–577, phosphorylated by aurora A (domain or fragment)
chain: {MBP}-EESFRDPAEVLGTGAEVDYLEQFGTSSFKESALRKQ[pS]LYLKFDPLLRDSPGRPVPV
modifications: reading uncertain
Take B1: the binding result is recorded as “binds”.

The record behind these values is publication PMC2894451 (The Journal of Cell Biology, 2010).
